Results reported in the supplement of paper PMC11780869.

What follows are sequences tested on Bacillus subtilis (assay: cleaved RNA product abundance (RNA/gDNA barcode ratio) relative to median wild-type variant (ratio to wild type); higher = more accumulation of the downstream cleavage product). Conditions: experiment (reporter, strain, medium): exp 2b: truncated aprE reporter, strain BJT200; cleavage site: cggR-gapA (positions -7 to +36 mutated).
How it was run: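 B. subtilis strains with chromosomally integrated reporter mRNAs (truncated aprE or tetM) holding barcoded, mutagenized RNase Y cleavage-site windows grew in LB at 37°C from OD600 0.0003 to 0.3. Cleaved product abundance is each construct's RNA:gDNA barcode ratio, scaled to the median construct with the unmutated site. It came from sequencing barcodes of gel-selected, reverse-transcribed cleaved RNA and of genomic DNA.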

| Sequence | cleaved RNA product abundance |
| --- | --- |
| ACAGACGAAGGAGCCGCAAAGAAGTTATTAAGGGAAGAATAATCCCTCAATATAATTATCTCTCACTTATTTAAA | 0.292 |
| ACAGACGAAGGAGCCGCAAAGAAGTTATTAAGGTATGAATAATCCCTCAATACAAATATCTCTCACTTATTTAAA | 0.0986 |
| ACAGACGAAGGAGCCGCAAAGAAGTTATTAAGGGATTAATAATCCCTCAATCTAAATATCTCTCACTTATTTAAA | 0.164 |
| ACAGACGAAGGAGCCGCAAAGAAGTTATTAAGGTATGAATAATCCCACAATATAAATATCTCTCACTTATTTAAA | 0.0792 |
| ACAGACGAAGGAGCCGCAAAGAAGTTATTAAGGGACGAATAATCCCACAATATAAATATCTCTCACTTATTTAAA | 0.13 |
| ACAGACGAAGGAGCCGCAAAGAAGTTATTAAGGGATGAATATTTCCTCAATATAAATATCTCTCACTTATTTAAA | 0.188 |
| ACAGACGAAGGAGCCGCAAAGAAGTTTTTAAGGGATGAATAATCACTCAATATAAATATCTCTCACTTATTTAAA | 0.125 |
| ACAGACGAAGGAGCCGCAAAGAAGTGATTAAGAGATGAATAATCCCTCAATATAAATATCTCTCACTTATTTAAA | 0.0989 |
| ACAGACGAAGGAGCCGCAAAGAAGTTATTAAGCGATAAATAATCCCTCAATATAAATATCTCTCACTTATTTAAA | 0.0673 |
| ACAGACGAAGGAGCCGCAAAGAAGTTATTAAGGGATAAATAACCCCTCAATATAAATATCTCTCACTTATTTAAA | 0.423 |
| ACAGACGAAGGAGCCGCAAAGAAGTTTTTAAGGGATGAATAATCCGTCAATATAAATATCTCTCACTTATTTAAA | 0.133 |
| ACAGACGAAGGAGCCGCAAAGAAGTTATTAAGGGATGAATAATCCCAAAATATAAATATCTCTCACTTATTTAAA | 0.306 |
| ACAGACGAAGGAGCCGCAAAGAAGTTATTAAGTCATGAATAATCCCTCAATATAAATATCTCTCACTTATTTAAA | 0.0957 |
| ACAGACGAAGGAGCCGCAAAGAAGTTATTAAGGGATGAATACTCCCTCCATATAAATATCTCTCACTTATTTAAA | 0.138 |
| ACAGACGAAGGAGCCGCAAAGAAGTTATTAACGGATAAATAATCCCTCAATATAAATATCTCTCACTTATTTAAA | 0.103 |
| ACAGACGAAGGAGCCGCAAAGAAGTTATTAATGGATGAATAGTCCCTCAATATAAATATCTCTCACTTATTTAAA | 0.0972 |
| ACAGACGAAGGAGCCGCAAAGACGTTATTAAGGGATGAATAATCCCTCCATATAAATATCTCTCACTTATTTAAA | 0.338 |
| ACAGACGAAGGAGCCGCAAAGAAGATATTAAGGGATGAATAATCCCTCAATTTAAATATCTCTCACTTATTTAAA | 0.157 |

Same assay, conditions: experiment (reporter, strain, medium): exp 4a: truncated aprE reporter, strain BJT201 with 2% xylose (RNase J1 expressed); cleavage site: cggR-gapA (positions -7 to +36 mutated)

| Sequence | cleaved RNA product abundance |
| --- | --- |
| ACAGACGAAGGAGCCGCAAAGAAGTTATTAAGGGATGAATCATCCCTCAATATAAATAACTCTCACTTATTTAAA | 0.573 |
| ACAGACGAAGGAGCCGCAAAGAAGTTATTAAGTGATGAATAGTCCCTCAATATAAATATCTCTCACTTATTTAAA | 0.14 |
| ACAGACGAAGGAGCCGCAAAGAAGTTATTAAGGGAAGAATAATCCCTCAATATAATTATCTCTCACTTATTTAAA | 0.314 |
| ACAGACGAAGGAGCCGCAAAGAAGTTATTAAGGGACGAATAATCCCTCAATATAAATTTCTCTCACTTATTTAAA | 0.559 |
| ACAGACGAAGGAGCCGCAATGAAGTTAATAAGGGATGAATAATCCTTCAATATAAATATCTCTCACTTATTTAAA | 0.263 |
| ACAGACGAAGGAGCCGCAAAGAAGTTATTAAGTGATGAATAATCACTCAATATAAATAACTCTCACTTATTTAAA | 1.16 |
| ACAGACGAAGGAGCCGCAAAGATGTTATTAAGGGATGAATGATCCCTCAATATAAATATCTCTCACTTATTTAAA | 0.51 |
| ACAGACGAAGGAGCCGCAAAGAAGTTATTAAGGAATGAATAATCCCTCAACATAAATATCTCTCACTTATTTAAA | 0.0941 |
| ACAGACGAAGGAGCCGCAAAGAAGTTATTAAGGTATGAATAATCCCACAATATAAATATCTCTCACTTATTTAAA | 0.0978 |
| ACAGACGAAGGAGCCGCATAGAAGTTATTAAGGCATGAATAAGCCCTCAATATAAATATCTCTCACTTATTTAAA | 0.143 |
| ACAGACGAAGGAGCCGCAAAGAAGTTATTAAGGGATGAATATTTCCTCAATATAAATATCTCTCACTTATTTAAA | 0.186 |
| ACAGACGAAGGAGCCGCAAAGAAGTTATTAAGGGACGAATAACCCCTCAATATAAATATCTCTCACTTATTTAAA | 0.19 |
| ACAGACGAAGGAGCCGCAAAGAAGTTTTTAAGGGATGAATAATCACTCAATATAAATATCTCTCACTTATTTAAA | 0.0945 |
| ACAGACGAAGGAGCCGCAAAGAAGTTATTAACGGATGAATAACCCCTCAATATAAATATCTCTCACTTATTTAAA | 0.0802 |
| ACAGACGAAGGAGCCGCAAAGAAGTGATTAAGAGATGAATAATCCCTCAATATAAATATCTCTCACTTATTTAAA | 0.133 |
| ACAGACGAAGGAGCCGCAAAGAAGTTATTAAGCGATAAATAATCCCTCAATATAAATATCTCTCACTTATTTAAA | 0.0716 |
| ACAGACGAAGGAGCCGCAAAGAAGTTATTAAGGGATAAATAACCCCTCAATATAAATATCTCTCACTTATTTAAA | 0.499 |
| ACAGACGAAGGAGCCGCAAAGAAGTTTTTAAGGGATGAATAATCCGTCAATATAAATATCTCTCACTTATTTAAA | 0.321 |
| ACAGACGAAGGAGCCGCAAAGAAGTTATTAAGGTATGAATAATCCCTCAATATAAATATTTCTCACTTATTTAAA | 0.121 |

| Sequence | cleaved RNA product abundance |
| --- | --- |
| ACAGACGAAGGAGCCGCAAAGAAGTTATTAAGTGAGGAATAATCCCTCAATATAAATATCTCTCACTTATTTAAA | 0.16 |
| ACAGACGAAGGAGCCGCAAAGAACTTATTAAGGGATGAGTAATCCCTCAATATAAATATCTCTCACTTATTTAAA | 0.421 |
| ACAGACGAAGGAGCCGCAAAGAAGTTATTAAGGGATGAATAATCCCAAAATATAAATATCTCTCACTTATTTAAA | 0.31 |
| ACAGACGAAGGAGCCGCAAAGAAGTTATTAAGGGATGAATAATCACTCAATATAAATTTCTCTCACTTATTTAAA | 0.112 |
| ACAGACGAAGGAGCCGCAAAGAAATTATTAAGGGATGAATAATCCCTCAATATAAATAGCTCTCACTTATTTAAA | 0.435 |
| ACAGACGAAGGAGCCGCAAAGAAGTTATTAAGGGATGAATAATACCTCAATATAATTATCTCTCACTTATTTAAA | 0.165 |
| ACAGACGAAGGAGCCGCAAAGAAGTTATTAAGTCATGAATAATCCCTCAATATAAATATCTCTCACTTATTTAAA | 0.106 |
| ACAGACGAAGGAGCCGCAAAGAAGTTATTAAGGGATGAATACTCCCTCCATATAAATATCTCTCACTTATTTAAA | 0.218 |
| ACAGACGAAGGAGCCGCAAACAAGTTATTAAGGGATGAATAATTCCTCAATATAAATATCTCTCACTTATTTAAA | 0.422 |
| ACAGACGAAGGAGCCGCAAAGACGTTATTAAGGGATGATTAATCCCTCAATATAAATATCTCTCACTTATTTAAA | 0.779 |
| ACAGACGAAGGAGCCGCAAAGGAGTTATTAAGGGATGAATAATCCCCCAATATAAATATCTCTCACTTATTTAAA | 0.247 |
| ACAGACGAAGGAGCCGCAAAGAAGTTATTAACGGATAAATAATCCCTCAATATAAATATCTCTCACTTATTTAAA | 0.188 |
| ACAGACGAAGGAGCCGCAAAGAAGTAATTAAGCGATGAATAATCCCTCAATATAAATATCTCTCACTTATTTAAA | 0.157 |
| ACAGACGAAGGAGCCGCAAAGAAGTTATTAAGAGATGAATAATCCCTCAATATAAATTTCTCTCACTTATTTAAA | 0.164 |
| ACAGACGAAGGAGCCGCAAAGAAGTGATTAAGGGATGAATAATCCCTCAATATAAAAATCTCTCACTTATTTAAA | 0.728 |
| ACAGACGAAGGAGCCGCAAAGAACTTATTAAGGGATGAATAATCCCTCTATATAAATATCTCTCACTTATTTAAA | 0.332 |
| ACAGACGAAGGAGCCGCAAAGAAGTTATTAAGGGATGAATAATCCCTCAAAATAAATAACTCTCACTTATTTAAA | 0.363 |
| ACAGACGAAGGAGCCGCAAAGAAGTTATTAAGGGATGAATAATCCTTCAATATAAATATCTCTCACTTATTTAAG | 0.558 |

Same assay, conditions: experiment (reporter, strain, medium): exp 6: tetM reporter, strain 168; cleavage site: cggR-gapA (positions -7 to +36 mutated)

| Sequence | cleaved RNA product abundance |
| --- | --- |
| ACAGACGAAGGAGCCTCAAAGAAGTTATTAAGGCATGAATAATCCCTCAATATAAATATCTCTCACTTATTTAAA | 0.157 |
| ACAGACGAAGGAGCCTCAAAGAAGTTATTAAGTGATGAATAATCCCTCAATATAAATATCTCTCACTTATTTAAA | 0.135 |

Same assay, conditions: experiment (reporter, strain, medium): exp 8a: truncated aprE reporter, strain BJT201 with 2% xylose (RNase J1 expressed); cleavage site: glnRA (positions -5 to +31 mutated)

| Sequence | cleaved RNA product abundance |
| --- | --- |
| CGACATGTCCCGCTTCTTTCATTATTCCGTTAGCAACTGTTTTGCTATGTACATTTACCTTTTAAGAGGAGGAAT | 0.184 |
| CGACATGTCCCGCTTCTTTCATTAATCCGTTAGCGACTGTTTTGCTATATACATTTAACTTTTAAGAGGAGGAAT | 0.418 |
| CGACATGTCCCGCTTCTTTCATTAATCCGTTAGAAACTGTTTTGCTAAATACATTTACCTTTTAAGAGGAGGAAT | 0.241 |
| CGACATGTCCCGCTTCTTTCATTATTCCGTTAGAAACTGTTTTGCTATATACACTTACCTTTTAAGAGGAGGAAT | 0.302 |
| CGACATGTCCCGCTTCTTTCATTAATCCGTTAGCAACTATTTTGGTATATACATTTACCTTTTAAGAGGAGGAAT | 0.273 |
| CGACATGTCCCGCTTCTTTCATTAATCCGTTTGAAACTGTTTTGCTATATACATTTACCTTTTAAGAGGAGGAAT | 0.388 |
| CGACATGTCCCGCTTCTTTCATTATTCCTTTAGCAACTGTTTTGATATATACATTTACCTTTTAAGAGGAGGAAT | 0.465 |
| CGACATGTCCCGCTTCTTTCATTAATCCGTTAGGAACTGTTTTGCAATATACATTTACCTTTTAAGAGGAGGAAT | 0.342 |
| CGACATGTCCCGCTTCTTTCATTAATCCGTTAGCGACTGTTTTGCTATATACATTTACCTTTTAAGAGGAGGAAT | 0.385 |
| CGACATGTCCCGCTTCTTTCATTAATCCGTTAGCAACTGTTTAGCTATATATATTTACCTTTTAAGAGGAGGAAT | 0.416 |
| CGACATGTCCCGCTTCTTTCATTAATCCGTTAGCCACTGTTTTGCTATATACATTTACCTTTTAAGAGGAGGAAT | 0.478 |
| CGACATGTCCCGCTTCTTTCATTATTCCGTTAGCAACTGTTTTTCTATATACATTTACCTTTTAAGAGGAGGAAT | 0.62 |
| CGACATGTCCCGCTTCTTTCATTAATCCATTAGCCACTGTTTTGCTATATACATTTACCTTTTAAGAGGAGGAAT | 0.271 |
| CGACATGTCCCGCTTCTTTCATTAATCCTTTAGCAACTGTTTTGCCATATACATTTACCTTTTAAGAGGAGGAAT | 0.2 |
| CGACATGTCCCGCTTCTTTCATTAATCCGTTAGCAAGTGTTTTACTATATACATTTACCTTTTAAGAGGAGGAAT | 0.824 |
| CGACATGTCCCGCTTCTTTCATTAATCCGTTAGCAACTGTTTTTCTATATATATTTACCTTTTAAGAGGAGGAAT | 0.668 |
